These results are taken from article PMC7644641 (Nature structural & molecular biology, 2020).

The assay has as its target RagA:RagC^D181N GTPase heterodimer (UniProt Q7L523 1-313; Q9HB90 1-399, D181N). Kind of assay: SEC. (In general: SEC sorts molecules by how far they enter the pores of the column.)

Chain of RagA:RagC^D181N GTPase heterodimer (Q7L523 whole entry, chain 1 of 2): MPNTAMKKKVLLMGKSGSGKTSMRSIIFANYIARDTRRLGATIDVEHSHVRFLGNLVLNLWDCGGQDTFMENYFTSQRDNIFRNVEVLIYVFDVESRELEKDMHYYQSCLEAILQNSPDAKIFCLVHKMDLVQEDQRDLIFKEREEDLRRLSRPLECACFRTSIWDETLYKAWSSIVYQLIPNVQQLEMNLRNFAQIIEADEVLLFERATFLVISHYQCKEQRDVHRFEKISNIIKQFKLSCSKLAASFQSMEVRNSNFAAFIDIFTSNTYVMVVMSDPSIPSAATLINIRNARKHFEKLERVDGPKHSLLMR
Chain of RagA:RagC^D181N GTPase heterodimer (Q9HB90 whole entry D181N, chain 2 of 2): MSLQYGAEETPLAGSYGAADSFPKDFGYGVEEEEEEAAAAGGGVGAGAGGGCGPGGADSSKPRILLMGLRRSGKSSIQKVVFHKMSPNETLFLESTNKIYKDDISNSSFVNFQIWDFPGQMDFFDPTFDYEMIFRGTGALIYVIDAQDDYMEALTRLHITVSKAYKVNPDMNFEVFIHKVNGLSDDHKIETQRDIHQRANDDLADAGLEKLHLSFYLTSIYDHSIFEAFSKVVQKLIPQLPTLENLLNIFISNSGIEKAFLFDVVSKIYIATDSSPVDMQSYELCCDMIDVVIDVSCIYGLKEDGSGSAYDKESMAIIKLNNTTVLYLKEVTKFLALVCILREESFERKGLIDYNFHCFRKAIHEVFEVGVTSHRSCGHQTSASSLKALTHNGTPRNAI

B1: SLC38A9 N-terminal cytoplasmic tail (residues 1–119) (domain or fragment, human, UniProt Q8NBW4 1-119, looked up)
chain: MANMNSDSRHLGTSEVDHERDPGPMNIQFEPSDLRSKRPFCIEPTNIVNVNHVIQRVSDHASAMNKRIHYYSRLTTPADKALIAPDHVVPAPEECYVYSPLGSAYKLQSYTEGYGKNTS
Regarding B1, the binding result is on record as “binds”.
